According to the nanobody polyreactivity screen of Harvey et al. (2022):

Experiment: yeast display, Sf9 membrane polyspecificity reagent, FACS + sequencing; frameworks hold sequencing errors
How it was run: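 A synthetic nanobody library was expressed on Saccharomyces cerevisiae BJ5465 by galactose induction for 36–48 hours. The library was stained for 1 hour at 4 °C with 10% biotinylated, detergent-solubilized Sf9 membrane reagent and enriched with streptavidin microbeads before FACS. Low and high (top ~1%) gates were set on anti-HA fluorescence for expression and streptavidin fluorescence for reagent binding, and each polyreactivity label reflects the gate of origin.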

Sequence | polyreactivity (PSR sort gate)
QVQLVESGGGLVQAGGSLRLSCAASGSTFSANTMGWYRPAPGKERELLAAISSSGVGTRYADSVKGRFTISRDTAKNNVYLQMKSLKPEDTAVYYCAADYRPTVITRNDYWGQGTQVTVSS | low polyreactivity
QVQLVESGGGLVQAGGSLRLSCAASGSTFSAYAMGWYRQAPGKERELVAAITRSGGSTYYADSVKGRFTISRDNAKNTVYLQMNSLKPEDTAVYYCAVRGYLLYYPPYKYEYWGQGTQVTVSS | high polyreactivity
QVQLVESGGGLVQAGGSLRLSCAASGSTFSDYAMGWYRQAPGKERELVAGITGGGGTYYADSVKGRFTISRDNAKNTVYLQMNSLKPEDTAVYYCAAGRRHGFGYWGQGTQVTVSS | low polyreactivity
QVQLVESGGGLVQAGGSLRLSCAASGSTFSEYAMGWYRQAPGKERELVAAISETGGRTYYADSVKGRFTISRDNAKNTVYLQMNSLKPEDTAVYYCAVDHLTRSGDGEYWGQGTQVTVSS | high polyreactivity
QVQLVESGGGLVQAGGSLRLSCAASGSTFSFNAMGWYRQAPGKERELVAAITGGDGTNYADSVKGRFTISRDNAKNTVYLQMNILKPEDTAVYYCAAYQWGSTEDYWFTYGYWGQGTQVTVSS | low polyreactivity
QVQLVESGGGLVQAGGSLRLSCAASGSTFSFNDMGWYRQAPGKERELVADISWSGDTTYADSVKGRFTISRDNAKNTVYLQMNSLKPEDTAVYYCNAEGFSIAFYANWVVQWEFDFWGQGTQVSVSS | high polyreactivity
QVQLVESGGGLVQAGGSLRLSCAASGSTFSFYAMGWDRQAPGKERELVAAIRAGTRTYYADSVKGRFTISRDNAKNTVYLQMNSLKPEDTAVYYCAATRRRYPYYYWGQGTLVTVSS | high polyreactivity
QVQLVESGGGLVQAGGSLRLSCAASGSTFSFYDMGWYRQAPGKETELVDAITGSGGTTYYADSVKGRFTISRDNAKNTVYLKMNSLIPEDTAVYFCAADSLESYPDYEYDYWGQGTQVTVSS | low polyreactivity
QVQLVESGGGLVQAGGSLRLSCAASGSTFSGNVMGWYRQAPGKERALVAAIRRSSGSTYYADSVKGRFTISRDNAKNTVYLQMNSLKPEDTAVYYCATDVTKIRQGDYYYWGQGTQVTVSS | high polyreactivity
QVQLVESGGGLVQAGGSLRLSCAASGSTFSGYAMGGYRQAPGKERELVAAISSSGGSTSYADSVKGRFTISRDNAKNTVYLQMNSLKPEDTAVYYCAARAKGYAHIRAYDYWGQGTQVTVSS | low polyreactivity
QVQLVESGGGLVQAGGSLRLSCAASGSTFSGYAMGWSRQAPGKERELVASITSSGGSTYYADSVKGRFTISRDNAKNTVYLQMNSLKPEDTAVYYCAAAKSAMWGQGTQVTVSS | low polyreactivity
QVQLVESGGGLVQAGGSLRLSCAASGSTFSGYDRGWYRQEPGKESEFVATITYSGGSTYYADSVKGRFTISRDNAKNTVYLQMNSLKPEDTAVYYCAADTPDAPDYSGLYYWGQGTQVTVSS | low polyreactivity
QVQLVESGGGLVQAGGSLRLSCAASGSTFSGYVMGWYRQAPGKERELVAAITGRGGNTYYADSVKGRFTISRDNGKNTVYLQMNSLKPEDTAVYYCAAARRSYQYGYWGQGTQVTVSS | high polyreactivity
QVQLVESGGGLVQAGGSLRLSCAASGSTFSHYTMGWYRQAPGKERELVAAITRSGGSTYYADSVKARFTISRDNAKNNVYLQMTSLNPEDSAVYYCAATRQWNILRYDYWGQGTLVTVSS | low polyreactivity
QVQLVESGGGLVQAGGSLRLSCAASGSTFSHYTMGWYRQAPGKERQLVAAINYGGASTYDADSVKGRFTISRDNAKNTVYLQMNSLKPEDTAVYYCAAAYRPSEQYNYWGQGTQVTVSS | low polyreactivity
QVQLVESGGGLVQAGGSLRLSCAASGSTFSINAMGWYRPAPGKERELVAAITWRGTRTYYADSVKGRFTISRDNAKNTVYLQMNSLKPEDTAVYYCAATGSGQSSYYYWGQGTQVTVSS | high polyreactivity

Sequence | polyreactivity (PSR sort gate)
QVQLVESGGGLVQAGGSLRLSCAASGSTFSIYAMGWYRQAPGKERELVAAISFSDDSTYYADSVKGRFTISRDNAKNTVYLQMNSLKPEDTAVYYCAAEGYWGQPFDYDGALEYWGQGTQVTVSS | high polyreactivity
QVQLVESGGGLVQAGGSLRLSCAASGSTFSIYAMGWYRQAPGKERELVAAISGSGSRTYYADSVKGRFTISRDNAKNTVYLQMNSLKPEDTAVYYCAARGRHRDGFDFNYWGQGTQVTVSS | high polyreactivity
QVQLVESGGGLVQAGGSLRLSCAASGSTFSKYAMGWYRQAPGKERELVAAITRTTGRTYYADSVKGRFSISRDNAKNTVYLHMNSLKPEDTAVDYCAARSPYYRAYKYDYWGQGTQVTVSS | high polyreactivity
QVQLVESGGGLVQAGGSLRLSCAASGSTFSLNDMGWYRQAPGKERQLVAAITGRGTRTYYADSVKGRFTISRDNAKNNVYLQMNSLKPEDTAVYYCAIDYPRGSPYGYNYWVQGTQVTVSS | high polyreactivity
QVQLVESGGGLVQAGGSLRLSCAASGSTFSLYAMGWYRQAPGKERELVAAITRSGGGTHYADSVKGRFTISRDNAKNTVYLQMNSLKPEDTAVYYCAKRQSGYRYDYWGQGTEVTVSS | low polyreactivity
QVQLVESGGGLVQAGGSLRLSCAASGSTFSNNAMGWYRQAPGKERELVASTNYADSVKGRFTISRDNEKNTVYLQMNSLKPEDTAVYYCAAGAYPSWGLDFWGQGTQVTVSS | low polyreactivity
QVQLVESGGGLVQAGGSLRLSCAASGSTFSNYAMGGYRQAPGKERELVAAITSGGTTNYADSVKGRFTISRDNAKNTVYLQMNSLKPEDTAVYYCAKRYSYHVPTHIWVEYYYWGQGTQVTVSS | low polyreactivity
QVQLVESGGGLVQAGGSLRLSCAASGSTFSPYAMGWYRHAPGKERELVAAITSGGGSTYYADSVKGRFTISRDNAKNTVYLQMNSLKPEDTAVYYCNAYLYYLGGPYDYWGQGTQVTVSS | high polyreactivity
QVQLVESGGGLVQAGGSLRLSCAASGSTFSPYAMGWYRQAPGKERELVAAINYSSGSTYYADSVKGRFTISRDNAKNTVYLQMNSLKPEDTAVYYCANGWYAGYPYDYWGQGTQVTVSS | low polyreactivity
QVQLVESGGGLVQAGGSLRLSCAASGSTFSPYAMGWYRQAPGKERELVADISWPGGTTYYADSVKGRFTISRDNAKNTVYLQMNSLKPEVTAVYYCAVTYWDYTFQITYEYWGQGTQVTVSS | low polyreactivity
QVQLVESGGGLVQAGGSLRLSCAASGSTFSPYAMGWYRQAPGKERELVAGISRGTSTNYADSVKGRFTISRDNAKNTVYLQMNSLKPVDTAVYYCAARAYHRYLPGYRVRFGDYYYWGQGTQVTVSS | high polyreactivity
QVQLVESGGGLVQAGGSLRLSCAASGSTFSPYAMVWYRQEPGKERELVAAITWSGGSTYYADSVKGRFTISRDNAKNSVYLQMNSLKPEDTAVYYCNAVPYLSIEYDYWGQGTQVTVSS | high polyreactivity
QVQLVESGGGLVQAGGSLRLSCAASGSTFSQYAMGWYRQAPGKETELVAVITRSGGSTYYADSVKGRFTISRDNAKNTVYLQMNSLKPEDTAVYYCAARSGRYKGDYWGQGTQVTVSS | low polyreactivity
QVQLVESGGGLVQAGGSLRLSCAASGSTFSQYVMGWYRQAPGKERELVAAISSGGSTYYADSVKGRFTISRDNAKNTVYLQMNSLKPEDTAVYYCAAKYDGSYVGLYWYSMNYWGQGTQVTVSS | low polyreactivity
QVQLVESGGGLVQAGGSLRLSCAASGSTFSRNAMGWYRQAPGKERELVAAISYRGGSTYYADSVKGRFTISRDNAKNTVYLQMNSLKPEDTAVYYCNADVGWRAPDYGGYDYWGQGTQVTVSS | high polyreactivity
QVQLVESGGGLVQAGGSLRLSCAASGSTFSRNAMGWYRQAPGKERELVAAITSSGGSTYYADSVKGRFTISRDNAKNTVYLQMNSLKPEDTAVYYCAAPRRRHFDYWGQGTQVTVSS | high polyreactivity
